The source of these data is FireProtDB (doi:10.1016/0022-2836(92)90562-x).

For the data set the following is noted: Bacillus amyloliquefaciens; pH 6.3; 25 °C; Urea; Fluorescence; MES-NaOH 450 mM; reversible: yes; whole UniProt chain shown.

B1: Ribonuclease wild type, P00648 (protein)
chain: MMKMEGIALKKRLSWISVCLLVLVSAAGMLFSTAAKTETSSHKAHTEAQVINTFDGVADYLQTYHKLPDNYITKSEAQALGWVASKGNLADVAPGKSIGGDIFSNREGKLPGKSGRTWREADINYTSGFRNSDRILYSSDWLIYKTTDHYQTFTKIR
In the case of B1, the denaturant m value came out at 1.93 kcal/mol/M, the “denaturant midpoint (higher = more stable)” value amounted to 4.57 M and the unfolding free energy stood at 8.82 kcal/mol.
